The values that follow come from article PMC9321335, “Palmitic Acid-Conjugated Radiopharmaceutical for Integrin αvβ3-Targeted Radionuclide Therapy” (Pharmaceutics, 2022).

Where two headings read alike, the source gives them in different places.

Data set [1] is described as follows: in vivo. The following applies: C57BL/6, mouse, 0.74 MBq, total radioactivity. As to the method: (§1) Mice bearing MC38 xenografts were randomly divided into 10 groups (n = 4). The mice in five groups were administered 0.74 MBq/20 µCi of ^177Lu-Palm-3PRGD2 and sacrificed at 1, 4, 12, 24, and 72 h p.i. The mice on one group was injected with 0.74 MBq/20 µCi of ^177Lu-Palm-3PRGD2 and 500 μg (242 nmol) 3PRGD2 as a blocking agent and sacrificed at 1 h p.i. […] Tumors and major organs were harvested, weighed and measured for radioactivity using a γ-counter. The organ uptake was calculated as the percentage injected activity per gram (%IA/g). The effective absorbed dose in humans estimated from mouse biodistribution data by using a dedicated software (OLINDA 1.0).

Data set [2] can be described thus: physchem. The class given is physicochemical. How it is done: Briefly, the radiopharmaceuticals were prepared and purified with Sep-Pak-C18 cartridges and then dissolved in a mixed solution of 5 mL n-octanol and 5 mL PBS. After vortexing for 1 h, the mixture was centrifuged at 10,000 rpm for 10 min. Samples (100 μL, n = 4) from the n-octanol and PBS components were collected and counted using a γ-counter. The […] were calculated as the logarithm of the n-octanol/PBS ratio.

Details of data set [3]: species or system C57BL/6 mice. The following applies: mouse, in vivo. As to the method:
Female KM mice were randomly divided into three groups (n = 5). […] Blood samples obtained from the canthus vein were collected at different time points post injection (p.i.), weighed, and evaluated using a γ-counter. The results are presented as the percentage injected activity per gram (%IA/g). Nonlinear regression (curve fit) followed by two phase decay was performed using GraphPad Prism version 9.0.0 for Windows, GraphPad Software, San Diego, CA, USA, www.graphpad.com (accessed on 22 May 2022). And then the half-lives values were calculated and determined. Blood clearance studies were performed in normal KM mice. […] Blood clearance studies were also performed in C57BL/6 mice.

For data set [4] the following is noted: cited from earlier work. The text has this:
This may be caused by several factors: first, palmitic acid can reversibly bind to albumin to prolong the blood retention time and reduce the elimination of peptides; second, ^177Lu-palm-3PRGD2 is amphiphilic and may self-assemble to form tiny nanoparticles (possibly nanospheres or nanofibers) with larger molecular sizes, resulting in lo ...

On the set-up of data set [5]: species or system KM mice. The following applies: mouse, in vivo, iv. How it is done: Female KM mice were randomly divided into three groups (n = 5). […] Blood samples obtained from the canthus vein were collected at different time points post injection (p.i.), weighed, and evaluated using a γ-counter. The results are presented as the percentage injected activity per gram (%IA/g). Nonlinear regression (curve fit) followed by two phase decay was performed using GraphPad Prism version 9.0.0 for Windows, GraphPad Software, San Diego, CA, USA, www.graphpad.com (accessed on 22 May 2022). And then the half-lives values were calculated and determined.

For data set [6], the system named is MC38 tumor-bearing mice. As to the kind of experiment: in vivo. The following applies: mouse. How it is done:
as §1

The conditions of data set [7]: reportedly; cited from earlier work. The text has this:
Albumin makes up approximately 55–60% of serum proteins, and its biological half-life is reportedly 19 days, which makes it possible to leverage the long circulation half-life of albumin to produce long-acting therapeutics.

Where [8] appears, read: Tumor-to-tissue ratio, Intestine.

Broadly, the tissue uptake is the percentage of the injected dose found per gram of tissue. As a reminder, the logD is the decadic logarithm of the distribution of all forms, ionised or not, between an organic phase and buffer at a given pH. For the molecule `N=C(N)NCCC[C@@H]1NC(=O)[C@H](CCCCNC(=O)CCOCCOCCOCCOCCNC(=O)CC[C@H](NC(=O)CCOCCOCCOCCOCCNC(=O)CN2CCN(CC(=O)O)CCN(CC(=O)O)CCN(CC(=O)O)CC2)C(=O)NCCOCCOCCOCCOCCC(=O)NCCCC[C@@H]2NC(=O)[C@@H](Cc3ccccc3)NC(=O)[C@H](CC(=O)O)NC(=O)CNC(=O)[C@H](CCCNC(=N)N)NC2=O)NC(=O)[C@@H](Cc2ccccc2)NC(=O)[C@H](CC(=O)O)NC(=O)CNC1=O` [^177Lu-3PRGD2, [^177Lu]Lu-DOTA-3PRGD2, metal not drawn], the tissue uptake at 4 h in data set [1] (Blood uptake) stood at 0.42 ± 0.26 %ID/g; in data set [1] (Bone uptake), 1.41 %ID/g; in data set [1] (Brain uptake), 0.09 %ID/g; in data set [1] (Heart uptake), 0.75 %ID/g; in data set [1] (Intestine uptake), 9.85 %ID/g; in data set [1] (Liver uptake), 2.95 %ID/g. Further, the tissue uptake at 4 h in data set [1] (Lung uptake) came out at 1.73 %ID/g; in data set [1] (Muscle uptake) it was 0.52 %ID/g; in data set [1] (Spleen uptake), 2.65 %ID/g; in data set [1] (Stomach uptake), 2.96 %ID/g; in data set [1] (Tumor uptake), 6.22 %ID/g. The tissue uptake at 12 h turned out to be 0.32 %ID/g in data set [1] (Blood uptake); 1.46 %ID/g in data set [1] (Bone uptake); 0.11 %ID/g in data set [1] (Brain uptake); 0.63 %ID/g in data set [1] (Heart uptake); 7.97 %ID/g in data set [1] (Intestine uptake); 4.48 %ID/g in data set [1] (Kidney uptake). The tissue uptake at 12 h in data set [1] (Liver uptake) came to 1.93 %ID/g; in data set [1] (Lung uptake) it was 1.46 %ID/g; in data set [1] (Muscle uptake), 0.64 %ID/g; in data set [1] (Spleen uptake) it was 1.89 %ID/g; in data set [1] (Stomach uptake) it was 2.39 %ID/g; in data set [1] (Tumor uptake), 4.11 %ID/g. Besides, the tissue to tissue ratio at 4 h turned out to be 20.3 in data set [1] (Tumor-to-tissue ratio, Blood); 4.41 in data set [1] (Tumor-to-tissue ratio, Bone); 68.7 in data set [1] (Tumor-to-tissue ratio, Brain); 8.31 in data set [1] (Tumor-to-tissue ratio, Heart); 0.66 in data set [1] (setting [8]); 2.11 in data set [1] (Tumor-to-tissue ratio, Liver). Further, the tissue to tissue ratio at 4 h in data set [1] (Tumor-to-tissue ratio, Lung) stood at 3.6; in data set [1] (Tumor-to-tissue ratio, Muscle), 12; in data set [1] (Tumor-to-tissue ratio, Spleen) it was 2.36; in data set [1] (Tumor-to-tissue ratio, Stomach) it was 2.1; in data set [1] (in vivo), 1.27. The tissue to tissue ratio at 12 h in data set [1] (Tumor-to-tissue ratio, Blood) was 14.2; in data set [1] (Tumor-to-tissue ratio, Bone), 2.82; in data set [1] (Tumor-to-tissue ratio, Brain) it was 39.9; in data set [1] (Tumor-to-tissue ratio, Heart), 6.53; in data set [1] (setting [8]) it was 0.52; in data set [1] (Tumor-to-tissue ratio, Liver), 2.13. Further, the tissue to tissue ratio at 12 h stood at 2.84 in data set [1] (Tumor-to-tissue ratio, Lung); 6.6 in data set [1] (Tumor-to-tissue ratio, Muscle); 2.22 in data set [1] (Tumor-to-tissue ratio, Spleen); 1.72 in data set [1] (Tumor-to-tissue ratio, Stomach); 0.92 in data set [1] (in vivo). Besides, the logD in data set [2] is -4.05 ± 0.14. In addition, the “Half-Life (T1/2α)” value was determined as 1.06 min in data set [3] and 1.94 min in data set [5]. In addition, the results for the “Half-Life (T1/2β)” value in data set [3] and in data set [5] were 14.54 min and 11.81 min, respectively. The Effective absorbed dose in data set [4] is reported as 1.35 × 10^−2 mSv/MBq.

Turning to `CCCCCCCCCCCCCCCC(=O)N[C@@H](CCC(=O)NCCCC[C@H](NC(=O)CN1CCN(CC(=O)O)CCN(CC(=O)O)CCN(CC(=O)O)CC1)C(=O)O)C(=O)O` [^177Lu-Palm, [^177Lu]Lu-DOTA-Palm, metal not drawn], the “Tumor-to-tissue ratio, Brain” value in data set [6] is 14.69. Moreover, in data set [5], the “Half-Life (T1/2α)” value amounted to 3.33 min and the “Half-Life (T1/2β)” value came out at 29.82 min.

As for Albumin, the Biological half-life in data set [7] is on record as 19 days.
